Experimental data reported in US20180112005A1 (published 2018).

Assays:
[1] = biological target: T1, hFLAG-EGF34+NRR-His6 (101V), the human Notch1 NRR immunogen (human Notch1 V1307-Q1733) (human, UniProt P46531 1307-1733); experiment: competitive phage-binding ELISA; phage-displayed Fab pre-mixed with serial dilutions of soluble NRR1, then captured on NRR1-coated plate
T1 construct: Secreted from Sf-9 cells; also called hNotch1 NRR; human NRR1
Protocol: (§1) To identify the phage antibodies that bound to both human and murine Notch1 NRR, all unique clones were tested for binding to human and murine Notch1 by ELISA. The affinities of phage antibodies were ranked using single spot competition ELISA as described below in this Example. The phage antibody IC50 values were further determined using competitive phage-binding ELISA essentially described in Lee, C. V., et al. (2004) J Mol Biol 340, 1073-93. Briefly, NUNC 96 well Maxisorp immunoplates were coated overnight at 4° C. with 1 μg/ml human NRR1 or murine NRR1, and were blocked for 1 hour at room temperature with blocking buffer PBST (PBS and 1% BSA and 0.05% Tween 20). Phage was mixed with serial dilution of human or murine NRR1 at room temperature for 1 hour before the mixture was added to human and murine NRR1 coated plate. Bound phage were detected with anti-M13 HRP conjugates, developed with TMB substrate for approximately 5 minutes, quenched with 1M H₃PO₄, and read spectrophotometrically at 450 nm.
(§2) In comparison to the OD_{450 nm} reduction (%) of the well of parental phage (100%), clones that had the OD_{450 nm} reduction (%) lower than 50% were picked for sequence analysis. Unique clones were selected for phage preparation to determine binding affinity (phage IC50) by comparison with parental clones (Table 4).

[2] = biological target: T2, mFLAG-EGF34+NRR-His6, the murine Notch1 NRR immunogen (mouse Notch1 V1307-Q1723) (mouse, UniProt Q01705 1307-1723); experiment: as above
T2 construct: N-terminal FLAG tag and C-terminal His tag, expressed in 293-F cells; also called mNotch1 NRR; mouse Notch1 NRR
T2 sequence (Q01705 other isoform, or with tags, fused parts or gaps): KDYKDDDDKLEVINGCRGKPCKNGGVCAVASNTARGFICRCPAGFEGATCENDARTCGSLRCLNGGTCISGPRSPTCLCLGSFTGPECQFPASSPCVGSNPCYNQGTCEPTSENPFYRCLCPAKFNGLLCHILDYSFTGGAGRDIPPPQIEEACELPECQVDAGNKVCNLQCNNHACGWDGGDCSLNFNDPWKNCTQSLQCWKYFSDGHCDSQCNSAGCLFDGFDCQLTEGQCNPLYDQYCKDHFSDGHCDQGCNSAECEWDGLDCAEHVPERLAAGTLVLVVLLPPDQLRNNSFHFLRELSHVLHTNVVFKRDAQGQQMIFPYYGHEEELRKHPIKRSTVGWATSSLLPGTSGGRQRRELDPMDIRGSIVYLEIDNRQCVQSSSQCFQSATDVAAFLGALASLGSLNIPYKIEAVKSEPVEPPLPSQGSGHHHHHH
Protocol: as §1, §2

[3] = biological target: T1, hFLAG-EGF34+NRR-His6 (101V), the human …; experiment: SPR (BIAcore-3000), IgG captured on rabbit anti-human IgG, NRR1-ECD protein injected 3.9-500 nM, 25 C, 1:1 Langmuir
Protocol: (§3) To further characterize the binding affinity and binding kinetics of the anti-Notch1 NRR Mabs, surface plasmon resonance (SRP) measurement with a BIAcore™-3000 was used (BIAcore, Inc., Piscataway, N.J.). Briefly, carboxymethylated dextran biosensor chips (CM5, BIAcore Inc.) were activated with N-ethyl-N′-(3-dimethylaminopropyl)-carbodiimide hydrochloride (EDC) and N-hydroxysuccinimide (NHS) according to the supplier's instructions. Rabbit anti human antibody (Pierce) was diluted with 10 mM sodium acetate, pH 4.8, into 20 μg/ml before injection at a flow rate of 5 μl/minute to achieve approximately 3000 response units (RU) of coupled antibody. Next, 1M ethanolamine was injected to block unreacted groups. Anti-NRR1 mab (formatted as a full-length IgG) was captured by rabbit anti-human IgG coated on the chips to achieve approximately 200 response units (RU). For kinetics measurements, two-fold serial dilutions of human NRR1-ECD or murine NRR1-ECD proteins (3.9 nM to 500 nM) were injected in PBT buffer (PBS with 0.05% Tween 20) at 25° C. with a flow rate of 30 μl/min. Association rates (kₒₙ) and dissociation rates (koff) were calculated using a simple one-to-one Langmuir binding model (BIAcore Evaluation Software version 3.2). The equilibrium dissociation constant (KD) was calculated as the ratio koff/kₒₙ.
(§4) “NA” signifies that the measurement was not performed.

[4] = biological target: T2, mFLAG-EGF34+NRR-His6, the murine Notch1 …; experiment: as above
Protocol: as §3, §4

[5] = biological target: human Notch1 expressed on NIH-3T3 cells (human, UniProt P46531 19-2555); experiment: cell-based or functional assay
human Notch2 NRR = biological target: T3, human Notch2 NRR (human, UniProt Q04721 1425-1677); experiment: cross-reactivity test of the IgG (Table 3; method not detailed)
T3 construct: domain: NRR; It is split here into the two species; also called human NRR2
T3 sequence (looked up): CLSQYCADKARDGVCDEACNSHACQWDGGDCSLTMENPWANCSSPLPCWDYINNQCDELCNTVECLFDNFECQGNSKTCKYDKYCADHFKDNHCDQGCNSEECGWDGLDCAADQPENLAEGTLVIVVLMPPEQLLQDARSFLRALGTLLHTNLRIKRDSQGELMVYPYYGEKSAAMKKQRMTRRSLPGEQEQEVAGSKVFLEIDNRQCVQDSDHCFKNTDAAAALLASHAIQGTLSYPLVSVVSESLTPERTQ

murine Notch2 NRR = biological target: T4, murine Notch2 NRR (mouse, UniProt O35516 1425-1679); experiment: as above
T4 construct: domain: NRR; It is split here into the two species; also called mouse NRR2
T4 sequence (looked up): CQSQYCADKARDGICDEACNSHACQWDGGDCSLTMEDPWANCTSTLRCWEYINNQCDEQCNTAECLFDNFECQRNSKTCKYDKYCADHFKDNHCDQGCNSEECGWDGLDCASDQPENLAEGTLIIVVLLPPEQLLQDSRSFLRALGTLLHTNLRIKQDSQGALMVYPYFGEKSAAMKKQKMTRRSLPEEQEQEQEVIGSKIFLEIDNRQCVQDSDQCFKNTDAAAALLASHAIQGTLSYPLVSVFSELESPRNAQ

human Notch3 NRR = biological target: T5, human Notch3 NRR (human, UniProt Q9UM47 1378-1643, limits assumed); experiment: as above
T5 construct: domain: NRR; It is split here into the two species; also called human NRR3
T5 sequence (Q9UM47 1378-1643 limits assumed): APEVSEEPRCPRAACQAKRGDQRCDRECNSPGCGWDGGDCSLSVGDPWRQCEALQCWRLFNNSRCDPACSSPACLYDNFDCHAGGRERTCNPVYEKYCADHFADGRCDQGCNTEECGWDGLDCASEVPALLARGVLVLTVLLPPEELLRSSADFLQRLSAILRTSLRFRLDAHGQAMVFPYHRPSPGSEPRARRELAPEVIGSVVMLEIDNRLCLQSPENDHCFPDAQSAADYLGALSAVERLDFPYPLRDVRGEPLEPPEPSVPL

murine Notch3 NRR = biological target: T6, murine Notch3 NRR (mouse, UniProt Q61982 1379-1643, limits assumed); experiment: as above
T6 construct: domain: NRR; It is split here into the two species; also called mouse NRR3
T6 sequence (Q61982 1379-1643 limits assumed): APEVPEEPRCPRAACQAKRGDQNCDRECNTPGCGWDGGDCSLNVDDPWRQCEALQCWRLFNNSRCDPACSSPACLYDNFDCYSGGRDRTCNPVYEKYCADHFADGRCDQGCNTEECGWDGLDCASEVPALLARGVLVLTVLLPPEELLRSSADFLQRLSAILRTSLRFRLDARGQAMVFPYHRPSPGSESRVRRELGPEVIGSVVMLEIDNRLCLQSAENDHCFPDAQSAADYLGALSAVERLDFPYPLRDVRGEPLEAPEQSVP

human Notch4 NRR = biological target: T7, human Notch4 NRR (human, UniProt Q99466 1170-1447, limits assumed); experiment: as above
T7 construct: domain: NRR; It is split here into the two species; also called human NRR4
T7 sequence (looked up): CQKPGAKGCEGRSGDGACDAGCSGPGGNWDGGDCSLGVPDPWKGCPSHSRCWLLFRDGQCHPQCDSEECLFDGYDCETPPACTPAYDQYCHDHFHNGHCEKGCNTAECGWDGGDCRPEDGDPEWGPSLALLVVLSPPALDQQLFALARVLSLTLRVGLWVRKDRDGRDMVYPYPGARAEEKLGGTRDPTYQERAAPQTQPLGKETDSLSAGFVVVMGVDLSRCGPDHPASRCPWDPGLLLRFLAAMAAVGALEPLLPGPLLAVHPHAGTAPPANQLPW

murine Notch4 NRR = biological target: T8, murine Notch4 NRR (mouse, UniProt P31695 1166-1443, limits assumed); experiment: as above
T8 construct: domain: NRR; It is split here into the two species; also called mouse NRR4
T8 sequence (looked up): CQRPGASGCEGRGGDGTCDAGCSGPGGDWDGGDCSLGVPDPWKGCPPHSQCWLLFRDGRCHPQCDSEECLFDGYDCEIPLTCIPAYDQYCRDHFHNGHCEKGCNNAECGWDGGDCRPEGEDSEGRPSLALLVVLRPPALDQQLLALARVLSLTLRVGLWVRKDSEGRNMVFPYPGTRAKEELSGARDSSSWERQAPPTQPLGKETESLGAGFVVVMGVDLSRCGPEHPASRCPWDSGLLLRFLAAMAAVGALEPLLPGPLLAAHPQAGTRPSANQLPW

Binder	IC50 [1] [nM]	IC50 [2] [nM]	Kd [3] [nM]	koff [3] [s⁻¹]	kon [3] [M⁻¹ s⁻¹]	Kd [4] [nM]	koff [4] [s⁻¹]	kon [4] [M⁻¹ s⁻¹]	Co-culture blocking, IC50 [5] [µg/mL]	binding result (human Notch2 NRR)	binding result (murine Notch2 NRR)	binding result (human Notch3 NRR)	binding result (murine Notch3 NRR)	binding result (human Notch4 NRR)	binding result (murine Notch4 NRR)
Antibody A-1, phage-displayed Fab clone (Fab, V domains shown) VH: EVQLVESGGGLVQPGGSLRLSCAASGFTFSSYWIHWVRQAPGKGLEWVARINPPNGSAHYADSVKGRFTISADTSKNTAYLQMNSLRAEDTAVYYCARGSGFRWVMDYWGQGTLVTVSS VL: DIQMTQSPSSLSASVGDRVTITCRASQDVSTAVAWYQQKPGKAPKLLIYSASFLYSGVPSRFSGSGSGTDFTLTISSLQPEDFATYYCQQSYTTPATFGQGTKVEIKR	0.8	0.6													
Antibody A-1 (antibody, IgG1, V domains shown, also called Antibody A-1-hIgG1) VH: EVQLVESGGGLVQPGGSLRLSCAASGFTFSSYWIHWVRQAPGKGLEWVARINPPNGSAHYADSVKGRFTISADTSKNTAYLQMNSLRAEDTAVYYCARGSGFRWVMDYWGQGTLVTVSS VL: DIQMTQSPSSLSASVGDRVTITCRASQDVSTAVAWYQQKPGKAPKLLIYSASFLYSGVPSRFSGSGSGTDFTLTISSLQPEDFATYYCQQSYTTPATFGQGTKVEIKR			3.43	0.00023	67000	3.88	0.00033	85000							
Antibody A-2, phage-displayed Fab clone (Fab, V domains shown) VH: EVQLVESGGGLVQPGGSLRLSCAASGFTFSSYWIHWVRQAPGKGLEWVARINPPNRSNQYADSVKGRFTISADTSKNTAYLQMNSLRAEDTAVYYCARGSGFRWVMDYWGQGTLVTVSS VL: DIQMTQSPSSLSASVGDRVTITCRASQDVSTAVAWYQQKPGKAPKLLIYSASFLYSGVPSRFSGSGSGTDFTLTISSLQPEDFATYYCQQFYTTPSTFGQGTKVEIKR	0.5	0.5													
Antibody A-3 (antibody, V domains shown) VH: EVQLVESGGGLVQPGGSLRLSCAASGFTFSSYWIHWVRQAPGKGLEWVARINPANGSTRYADSVKGRFTISADTSKNTAYLQMNSLRAEDTAVYYCARGSGFRWVMDYWGQGTLVTVSS VL: DIQMTQSPSSLSASVGDRVTITCRASQDVSTAVAWYQQKPGKAPKLLIYSASFLYSGVPSRFSGSGSGTDFTLTISSLQPEDFATYYCQQSFSTPATFGQGTKVEIKR			5.88	0.0004	68000	13	0.0012	92000							
Antibody A (antibody, IgG1, V domains shown, also called anti-Notch1 NRR Antibody A; Antibody A-hIgG1) VH: EVQLVESGGGLVQPGGSLRLSCAASGFTFSSYWIHWVRQAPGKGLEWVARINPSNGSTNYADSVKGRFTISADTSKNTAYLQMNSLRAEDTAVYYCARGSGFRWVMDYWGQGTLVTVSS VL: DIQMTQSPSSLSASVGDRVTITCRASQDVSTAVAWYQQKPGKAPKLLIYSASFLYSGVPSRFSGSGSGTDFTLTISSLQPEDFATYYCQQSYTTPPTFGQGTKVEIKR			134	0.011	82000	231	0.021	91000	~0.1	no binding	no binding	no binding	no binding	no binding	no binding
Antibody A-2 (antibody, IgG1, V domains shown, also called Antibody A-2-hIgG1) VH: EVQLVESGGGLVQPGGSLRLSCAASGFTFSSYWIHWVRQAPGKGLEWVARINPPNRSNQYADSVKGRFTISADTSKNTAYLQMNSLRAEDTAVYYCARGSGFRWVMDYWGQGTLVTVSS VL: DIQMTQSPSSLSASVGDRVTITCRASQDVSTAVAWYQQKPGKAPKLLIYSASFLYSGVPSRFSGSGSGTDFTLTISSLQPEDFATYYCQQFYTTPSTFGQGTKVEIKR			2.53	0.00022	87000	3.09	0.00034	110000							
Antibody A-3, phage-displayed Fab clone (Fab, V domains shown) VH: EVQLVESGGGLVQPGGSLRLSCAASGFTFSSYWIHWVRQAPGKGLEWVARINPANGSTRYADSVKGRFTISADTSKNTAYLQMNSLRAEDTAVYYCARGSGFRWVMDYWGQGTLVTVSS VL: DIQMTQSPSSLSASVGDRVTITCRASQDVSTAVAWYQQKPGKAPKLLIYSASFLYSGVPSRFSGSGSGTDFTLTISSLQPEDFATYYCQQSFSTPATFGQGTKVEIKR	0.5	2.5													
